Source: paper PMC8216470, “The structure of the mouse ADAT2/ADAT3 complex reveals the molecular basis for mammalian tRNA wobble adenosine-to-inosine deamination” (Nucleic Acids Research, 2021)

Biological target: the molecule itself
Experiment: SEC; oligomeric state of the protein produced alone, as assessed by size exclusion chromatography

| Protein | stoichiometry N |
| --- | --- |
| Escherichia coli TadA (enzyme, E. coli, UniProt P68398 1-167, looked up, tRNA-specific adenosine deaminase TadA, Escherichia coli; also called E. coli TadA; source: produced and purified using the same protocol as for the ADAT complex (E. coli BL21(DE3); Talon, 3C protease, HiTrap Q, Superdex 200)) MSEVEFSHEYWMRHALTLAKRAWDEREVPVGAVLVHNNRVIGEGWNRPIGRHDPTAHAEIMALRQGGLVMQNYRLIDATLYVTLEPCVMCAGAMIHSRIGRVVFGARDAKTGAAGSLMDVLHHPGMNHRVEITEGILADECAALLSDFFRMRRQEIKAQKKAQSSTD | 2 |
| mouse ADAT2 (enzyme, UniProt Q6P6J0 1-191, looked up, tRNA-specific adenosine deaminase 2 (ADAT2), mouse, full-length gene amplified from E16.5 cortices, NCBI NM_025748.4; cloned in pnCS, which codes for no fusion tag; residues 11-176 seen in the electron density; the untagged pnCS construct is told only for the co-expression; also called A2; ADAT2/ADAT2 (homodimer, when produced alone); source: E. coli BL21(DE3), co-expressed with ADAT3, purified …) MEEKVESTTTPDGPCVVSVQETEKWMEEAMRMAKEALENIEVPVGCLMVYNNEVVGKGRNEVNQTKNATRHAEMVAIDQVLDWCHQHGQSPSTVFEHTVLYVTVEPCIMCAAALRLMKIPLVVYGCQNERFGGCGSVLNIASADLPNTGRPFQCIPGYRAEEAVELLKTFYKQENPNAPKSKVRKKDCQKS | 2 |
